# Experimental data reported in US12385055B2, “Compositions and methods for production of salidroside, icariside D2, and precursors of salidroside and icariside D2” (Whitehead Institute for Biomedical Research, priority 2017, dated 2025).
# Substrate: OCCc1ccc(O)cc1
# Test: Michaelis-Menten kinetics of RrT8GT (RrUGT33), tyrosol 8-O-glucosylation
# Type: biochemical, Rhodiola rosea
# Settings: other: substrate tyrosol (0.01-5.0 mM), 10 mM UDP-glucose, pH 8.0, 30° C., 10 min
# Method: Kinetic characterization of UGTs was conducted in 200 μL reaction buffer (50 mM Tris, pH 8.0) containing 10 mM UDP-glucose and various concentrations of tyrosol (0.01-5.0 mM). Reactions were started with addition of recombinant enzyme, incubated at 30° C. for 10 minutes, and quenched by addition of 200 μL of methanol. The reaction mixed was then analyzed by LC-HRAR-MS as described above. Compounds were separated by reversed-phase chromatography with a ramp gradient of solvent A (0.1% formic acid in H2O) and solvent B (0.1% formic acid in acetonitrile): 5% solvent B for 0.5 min, 5-55% solvent B over 6 min, 55-5% solvent B over 1.0 min and a final equilibration of 5% solvent B for 1 min with a flow rate at 0.6 mL/min. Product formation was measured using select ion monitoring in positive mode for a centroid center mass of 318.15. Product mass was calculated by comparison to a standard curve of the NMR verified plant purified salidroside and icariside D2 samples.
# Kinetic constants such as Km and Vmax were determined by fitting raw data to the Michaelis-Menten equation using the nonlinear regression function in Prism (version 7.0).
protein,measurement,value
"Rhodiola rosea RrT8GT (RrUGT33), tyrosol:UDP-glucose 8-O-glucosyltransferase, SEQ ID NO: 20 (Rhodiola rosea) (protein) MSLIEKPLTAIETREKPHAVCIPYPAQGHINPMMQLAKLLHHSGFHITFVHTEYNYDRLVKSQGSACVAGLPDFRFEAIPDGLPSTNGDVTQDIPLLSSSTSKTCLKPFKELLKRLQDKCKELPDDVPPLSCIVSDAAMSFTIDASEEFGVPIALLWTASACGFLGYTHYPYLIDRGVIPLKDESQLTNGYLDMSIDGIPCMEGIRLRDLPSFLRTTDLDDMMFSYILHEIKQVSRGSAIILNTFEALDHDVLDSLSKIYQNVILPVGPLHVSLNKIPKHYPLQSLSSNLWKDDTDCIPWLSSKASKSVIYVNFGSITTVSPKQIVEFAWGLANSKHPFLWIIRPDLVAGEASIIPQDFMDETKGRGLLAGWCDQELVLNHPSIGGFLTHCGWNSIIESISAGVPTVCWPFFAEQQTNCWFACKKWCIGMEMHTDVKRDEVDKLLRELMEGDKGEELKRKATNWKRLAEEAVSSTGLSTLNFRTLVNQVLLSKTKHIR",Km,1.37 ± 0.05 mM
same,kcat,576.2 ± 5.68 s⁻¹
same,kcat/Km,421000 M⁻¹ s⁻¹
